Assay results published in US20090317363A1.
Numbering of substitutions follows the chain as printed.

B1: RANTES derivative: signature sequence SEQ ID NO: 4 fused to positions 10-68 of native RANTES (SEQ ID NO: 1) (ligand)
chain: QGPPLMWLQVCCFAYIARPLPRAHIKEYFYTSGKCSNPAVVFVTRKNRQVCANPEKKWVREYINSLEMS
B2: RANTES derivative: signature sequence SEQ ID NO: 46 fused to positions 10-68 of native RANTES (SEQ ID NO: 1) (ligand)
chain: B1 chain with P4L, L5S, M6G, L8A
B3: RANTES derivative: signature sequence SEQ ID NO: 38 fused to positions 10-68 of native RANTES (SEQ ID NO: 1) (ligand)
chain: B1 chain with W7Q
B4: RANTES derivative: signature sequence SEQ ID NO: 56 fused to positions 10-68 of native RANTES (SEQ ID NO: 1) (ligand)
chain: B1 chain with W7S, L8S, V10S
B5: RANTES derivative: signature sequence SEQ ID NO: 39 fused to positions 10-68 of native RANTES (SEQ ID NO: 1) (ligand)
chain: B1 chain with M6S, L8S
B6: RANTES derivative: signature sequence SEQ ID NO: 6 fused to positions 10-68 of native RANTES (SEQ ID NO: 1) (ligand)
chain: B1 chain with V10T
B7: RANTES derivative: signature sequence SEQ ID NO: 61 fused to positions 10-68 of native RANTES (SEQ ID NO: 1) (ligand)
chain: B1 chain with M6Q, L8M
B8: RANTES derivative: signature sequence SEQ ID NO: 55 fused to positions 10-68 of native RANTES (SEQ ID NO: 1) (ligand)
chain: B1 chain with L5G, M6S, L8S
B9: RANTES derivative: signature sequence SEQ ID NO: 35 fused to positions 10-68 of native RANTES (SEQ ID NO: 1) (ligand)
chain: B1 chain with L5G, L8S, V10S
B10: RANTES derivative: signature sequence SEQ ID NO: 42 fused to positions 10-68 of native RANTES (SEQ ID NO: 1) (ligand)
chain: B1 chain with L5M, M6S, W7A, L8Y
B11: RANTES derivative: signature sequence SEQ ID NO: 37 fused to positions 10-68 of native RANTES (SEQ ID NO: 1) (ligand)
chain: B1 chain with W7G, L8T, V10S
B12: RANTES derivative: signature sequence SEQ ID NO: 54 fused to positions 10-68 of native RANTES (SEQ ID NO: 1) (ligand)
chain: B1 chain with L5G, M6Q, L8G
B13: RANTES derivative: signature sequence SEQ ID NO: 50 fused to positions 10-68 of native RANTES (SEQ ID NO: 1) (ligand)
chain: B1 chain with M6Q, L8F
B14: RANTES derivative: signature sequence SEQ ID NO: 47 fused to positions 10-68 of native RANTES (SEQ ID NO: 1) (ligand)
chain: B1 chain with P4L, L5S, M6Q, W7S, L8S
B15: RANTES derivative: signature sequence SEQ ID NO: 40 fused to positions 10-68 of native RANTES (SEQ ID NO: 1) (ligand)
chain: B1 chain with L5M, M6S, L8S, V10S
B16: RANTES derivative: signature sequence SEQ ID NO: 48 fused to positions 10-68 of native RANTES (SEQ ID NO: 1) (ligand)
chain: B1 chain with P4L, L5S, M6S, W7Q, L8S
B17: RANTES derivative: signature sequence SEQ ID NO: 34 fused to positions 10-68 of native RANTES (SEQ ID NO: 1) (ligand)
chain: B1 chain with M6S, L8Q, V10S
B18: RANTES derivative: signature sequence SEQ ID NO: 49 fused to positions 10-68 of native RANTES (SEQ ID NO: 1) (ligand)
chain: B1 chain with P4L, L5G, M6Q, W7Q, L8G
B19: RANTES derivative: signature sequence SEQ ID NO: 63 fused to positions 10-68 of native RANTES (SEQ ID NO: 1) (ligand)
chain: B1 chain with W7S, Q9S

These binders were tested against CCR5 (UniProt P51681) (assay: cell-based or functional assay).

Binder	CCR5 sequestration (%) (% of control surface CCR5)	CCR5 signalling (%) (% of Emax of PSC-RANTES)	anti-HIV potency (IC50, nM) by cell fusion assay [nM]	anti-HIV potency (IC50, nM) by viral replication assay [nM]
B1	3	4.6	0.02	0.38
B2	72	97.6	0.4	
B3	3	0.3	0.1	
B4	15	7.5	0.15	
B5	5	1.7	0.1	
B6	3	1.4	0.02	289
B7	7	12.7	0.02	
B8	33	7.3	0.07	
B9	5	4.9	0.05	
B10	0	0.2	0.16	
B11	5	0.7	0.09	
B12	12	2.1	0.06	
B13	11	7.6	0.02	
B14	78	96.9	0.44	
B15	6	0	0.11	
B16	78	100	0.64	
B17	8	5.1	0.03	
B18	77	97.2	0.74	
B19	50	42.7	0.03	
